# Results from publication PMC3082911 (Nucleic Acids Research, 2010).
# T1: myc-tagged PSF (full-length) (UniProt Q8VIJ6 1-699)
# T1 sequence: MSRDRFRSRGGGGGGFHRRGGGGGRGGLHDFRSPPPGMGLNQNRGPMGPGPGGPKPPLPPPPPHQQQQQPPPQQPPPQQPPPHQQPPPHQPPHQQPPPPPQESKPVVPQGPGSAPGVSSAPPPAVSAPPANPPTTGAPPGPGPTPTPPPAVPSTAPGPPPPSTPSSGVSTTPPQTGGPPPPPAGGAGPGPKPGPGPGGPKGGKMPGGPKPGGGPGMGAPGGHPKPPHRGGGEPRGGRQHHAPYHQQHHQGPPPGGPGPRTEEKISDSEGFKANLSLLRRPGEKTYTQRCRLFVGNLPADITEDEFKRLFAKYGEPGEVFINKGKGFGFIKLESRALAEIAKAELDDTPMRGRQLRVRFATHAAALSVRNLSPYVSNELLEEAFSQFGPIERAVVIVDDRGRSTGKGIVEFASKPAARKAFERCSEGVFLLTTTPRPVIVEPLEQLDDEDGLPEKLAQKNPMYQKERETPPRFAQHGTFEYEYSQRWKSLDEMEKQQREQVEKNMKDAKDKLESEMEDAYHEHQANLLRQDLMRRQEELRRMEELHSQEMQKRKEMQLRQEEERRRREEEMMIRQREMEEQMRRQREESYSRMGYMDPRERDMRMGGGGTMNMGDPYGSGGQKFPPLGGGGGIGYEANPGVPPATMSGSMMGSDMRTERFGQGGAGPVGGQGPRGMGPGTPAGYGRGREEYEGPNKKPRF
# Experiments:
# [1] = target: myc-tagged PSF (full-length) (UniProt Q8VIJ6); assay: co-IP
# [2] = target: T1, myc-tagged PSF (full-length); assay: co-IP
Molecule,fold more efficiently pulled down by PSF than Fox-1 [1] [fold],fold more efficiently pulled down by PSF than Fox-2 [1] [fold],fold more efficiently pulled down by PSF than Fox-1 [2] [fold],fold more efficiently pulled down by PSF than Fox-2 [2] [fold]
myc-tagged Fox-3-S (from UniProt Q8BIF2-5 1-327) (natural protein),7,2.7,–,–
myc–Fox-3-L (natural protein) MAQPYPPAQYPPPPQNGIPAEYAPPPPHPTQDYSGQTPVPPEHGMTLYTPAQTHPEQPGTEASTQPIAGTQTVPQADEAAQTDNQQLHPSDPTEKQQPKRLHVSNIPFRFRDPDLRQMFGQFGKILDVEIIFNERGSKGFGFVTFETSSDADRAREKLNGTIVEGRKIEVNNATARVMTNKKPGNPYANGWKLNPVVGTVYGPEFYAVTSFPYPTTGTAVAYRGAHLRGRGRAVYNTFRAAPPPPPIPTYGAALEQTLVKMPVPWAGLAPCPLPPQQTPEPAYPTSPAFPPLSCPFASRVVYQDGFYGAEIYGGYAAYRYAQPAAATAAAYSDSYGRVYAAADPYHHTIGPTATYSIGTMASLCRGGYSRFTPY,–,–,7,2.7
